Among the data in paper PMC6468627 are binding signal (% displaced by antibody), Kd and binding signal (% of cells releasing aptamer) values, retold here.

Data set [1] has as its target T1, EpCAM (native, on primary lung cancer cells) (Homo sapiens (patient NSCLC tumor cells)) (UniProt P16422).
T1 sequence: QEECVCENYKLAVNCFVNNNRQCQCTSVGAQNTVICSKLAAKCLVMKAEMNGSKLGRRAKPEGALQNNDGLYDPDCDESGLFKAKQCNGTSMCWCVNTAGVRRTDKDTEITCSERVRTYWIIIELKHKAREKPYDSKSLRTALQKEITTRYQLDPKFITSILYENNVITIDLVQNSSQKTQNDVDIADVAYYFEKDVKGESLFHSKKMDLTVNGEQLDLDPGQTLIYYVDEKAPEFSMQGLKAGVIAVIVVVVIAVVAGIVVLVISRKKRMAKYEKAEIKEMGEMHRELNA
Briefly: competition (flow cytometry). The settings on record: DPBS, 25 °C, 30 min; cells (3×10^5) pre-incubated with 1 ng/uL salmon sperm DNA; DNA pools/library heated to 95 °C 5 min then on ice 10 min; pH not stated. (In general: A flow cytometer gives signals particle by particle.)

In data set [2] the target is T1, EpCAM (native, on primary lung cancer cells) (Homo sapiens (patient NSCLC tumor cells)). The data set is described as follows: flow cytometry (cell binding). The settings on record: apparent Kd on whole primary lung cancer cells; 1-300 nM aptamer; DPBS, 25 °C, 30 min; cells (3×10^5) pre-incubated with 1 ng/uL salmon sperm DNA; DNA pools/library heated to 95 °C 5 min then on ice 10 min; pH not stated.

“CTCCTCTGACTGTAACCACGACACGCACAAATGTCAGTGTACCGCACTCGCACATTCTTAGCATAGGTAGTCCAGAAGCC [EPCAM-APT-01 (ECM_01)]” came in with a binding signal (% displaced by antibody) in data set [1] of 15. In addition, the Kd in data set [2] was determined as 25 nM.
With “CTCCTCTGACTGTAACCACGGTGCGCGTACCACCATGTGTACACACTGCATGTTTGGTTAGCATAGGTAGTCCAGAAGCC [EPCAM-APT-02 (ECM_02)]”, the binding signal (% of cells releasing aptamer) in data set [1] was 18. The Kd in data set [2] came out at 15 nM.
